Assay results reported in patent US20180031579A1.

Target: Growth differentiation factor 11 (GDF11) (human) (UniProt O95390)
Assay: cell-based or functional assay

Chain of UniProt O95390 (O95390 299-407 limits assumed): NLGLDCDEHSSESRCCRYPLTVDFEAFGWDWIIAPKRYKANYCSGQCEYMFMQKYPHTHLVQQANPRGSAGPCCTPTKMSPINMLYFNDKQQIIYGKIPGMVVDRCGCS

Question: “anti-human GDF11 antibody ab71347 (Abcam)” was tested. Which apoptosis in primary AML blasts, subjects 5 and 6 did it give?
Answer: The apoptosis in primary AML blasts, subjects 5 and 6 was 50 % apoptosis.
